# Data as given in article PMC4638040 (2015).
# B1: Hsp70 C-terminal peptide GPTIEEVD (residues 634-641), biotin-SGSG at the N terminus [modified: biotin at the N terminus; biotin at the N terminus] [not stated] / Carboxy-terminus of Hsc70-interacting protein (CHIP), His-tagged, wild type … (parent complex)
# chain 1: SGSGGPTIEEVD
# chain 2: MKGKEEKEGGARLGAGGGSPEKSPSAQELKEQGNRLFVGRKYPEAAACYGRAITRNPLVAVYYTNRALCYLKMQQHEQALADCRRALELDGQSVKAHFFLGQCQLEMESYDEAIANLQRAYSLAKEQRLNFGDDIPSALRIAKKKRWNSIEERRIHQESELHSYLSRLIAAERERELEECQRNHEGDEDDSHVRAQQACIEAKHDKYMADMDELFSQVDEKRKKRDIPDYLCGKISFELMREPCITPSGITYDRKDIEEHLQRVGHFDPVTRSPLTQEQLIPNLAMKEVIDAFISENGWVEDY
# B2: Carboxy-terminus of Hsc70-interacting protein (CHIP), His-tagged, wild type [human] / GST-IRF-1 (pDEST-15-codon optimized IRF-1) [not stated] (parent complex)
# chain 1: B1 chain 2
# chain 2: MPITRMRMRPWLEMQINSNQIPGLIWINKEEMIFQIPWKHAAKHGWDINKDACLFRSWAIHTGRYKAGEKEPDPKTWKANFRCAMNSLPDIEEVKDQSRNKGSSAVRVYRMLPPLTKNQRKERKSKSSRDAKSKAKRKSCGDSSPDTFSDGLSSSTLPDDHSSYTVPGYMQDLEVEQALTPALSPCAVSSTLPDWHIPVEVVPDSTSDLYNFQVSPMPSTSEATTDEDEEGKLPEDIMKLLEQSEWQPTNVDGKGYLLNEPGVQPTSVYGDFSCKEEPEIDSPGGDIGLSLQRVFTDLKNMDATWLDSLLTPVRLPSIQAIPCAP
# B3: GST-IRF-1 (pDEST-15-codon optimized IRF-1) [not stated] / Carboxy-terminus of Hsc70-interacting protein (CHIP), His-tagged, wild type [human] (parent complex)
# chain 1: B2 chain 2
# chain 2: B1 chain 2
# B4: Carboxy-terminus of Hsc70-interacting protein (CHIP), untagged, wild type [human] / His-tagged UbcH5a [not stated] (parent complex)
# chain 1: B1 chain 2
# chain 2: not shown
# Variants of: B1
# Test: microtitre-well binding assay (streptavidin-HRP detection); value read at the highest dose, 20 uM Hsp70 wt peptide; His-CHIP coated on wells, biotin peptide in the mobile phase; parent: 45; read off a plot
row,Variant,response
1,chain 2 K30A,~7 RLU

# Variants of: B2
# Test: microtitre-well binding assay (luminometer, anti-CHIP antibody); upper panel; value read at the highest dose, about 130 ng CHIP; GST-IRF-1 immobilized, His-CHIP in the mobile phase; parent: 18; read off a plot
row,Variant,response
1,chain 1 K30A,~12 RLU

# Variants of: B3
# Test: microtitre-well binding assay; lower panel; value read at the highest dose, about 130 ng GST-IRF-1; His-CHIP coated on wells, GST-IRF-1 in the mobile phase; parent: 120; read off a plot
row,Variant,response
1,chain 2 K30A,~110 RLU

# Variants of: B4
# Test: AlphaScreen; value read at the highest dose, 100 ng CHIP; untagged CHIP on protein A acceptor beads through anti-CHIP N-term pAb, His-UbcH5a on Nickel-chelate donor beads; parent: 2.3e+04; read off a plot
row,Variant,response
1,chain 1 K30A,~9000 AlphaScreen Units
